Entries after “also recorded” stand apart in the source; their conditions may differ.
Key:
[1] = tested on: target tumour cells and endothelial cells; details: acts on microtubuli; literature references; cited from earlier work
[2] = tested on: areas of bone marrow from AML patients with high blast densities; assay: Multicolour immunofluorescence of AML bone marrow (co-localization with vWF); format: binding, human; details: biotinylated SIP, 2 μg/mL
Protocol: Biotinylated antibodies were used in small immunoprotein format (SIP) under identical conditions (2 μg/ml). Aliquots were prepared from a single batch of antibodies, frozen and used only once to ensure reproducibility of immunohistochemical stainings.
Sections of 10 μm thickness were fixed in chilled acetone and blocked with 20% fetal calf serum in PBS. Biotinylated F8-SIP (V5L/K18R) and 4A1-F16-SIP were added onto the sections in a final concentration of 2 μg/mL in 3% bovine serum albumin (BSA)/PBS solution and incubated for one hour. Mouse anti-human vWF (von Willebrandt factor) was used to outline endothelial cells. After washing in PBS, bound primary antibodies were detected with Streptavidin-Alexa Fluor 488 and anti-mouse IgG Alexa Fluor 594 (Invitrogen) were used as secondary antibodies. Nuclei were counterstained with DAPI and images were captured on an Axioskop 2 Mot plus microscope equipped with an AxioCam MRc camera (Zeiss). Human

[3] = tested on: blood vessels present in the bone marrow biopsies of patients with extramedullary AML; assay: Immunohistochemistry of bone marrow biopsies from patients with extramedullary AML; format: binding, human; details: biotinylated antibody in SIP format, 2 μg/ml; two patients; FIG. 3
Protocol: (§1) Immunohistochemistry and immunofluorescence analysis were performed on freshly frozen bone marrow biopsies of patients with acute myeloid leukaemia.
(§2) For immunohistochemistry, biotinylated antibodies were used in small immunoprotein format (SIP) under identical conditions (2 μg/ml). Aliquots were prepared from a single batch of antibodies, frozen and used only once to ensure reproducibility of immunohistochemical stainings. Frozen tissue samples were stored at −80° C. Sections of 10 μm thickness were fixed in chilled acetone, rehydrated in TBS buffer (50 mM Tris, 100 mM NaCl, 0.001% Aprotinin, pH 7.4) and blocked with 20% fetal calf serum in TBS. The antibodies were added onto the sections in a final concentration of 2 μg/mL in 3% bovine serum albumin (BSA)/TBS solution and incubated for one hour. After washing in TBS, bound antibodies were detected with streptavidin-biotinylated alkaline phosphatase complex (Biospa, Milan, Italy) in TBS 3% BSA+2 mM MgCl2. The Fast Red substrate (Sigma) was used for detection of phosphatase activity. Sections were counterstained with Gill's hematoxylin No. 2 (Sigma) and mounted with Glycergel mounting medium (Dako, Glostrup, Denmark).

[4] = tested on: blood vessels in the bone marrow of AML patients; assay: Immunohistochemistry of bone marrow biopsies from AML patients; format: binding, human; details: biotinylated antibody in SIP format, 2 μg/ml, frozen 10 μm sections; FIG. 2
Protocol: as §1, §2

[5] = tested on: healthy bone marrow; assay: Immunohistochemistry of healthy bone marrow from HL-60 xenografted mice; format: binding, nude mice; details: biotinylated SIP, 2 μg/ml; bone marrow of the same HL-60 xenografted mice; FIG. 4B
Protocol: as §2
The mouse model for human leukaemia used here was previously described in Potter et al. (1984). Specifically, nude mice were xenografted with cells from the HL-60 leukaemia cell line and, after development of HL-60 tumours (granulocytic sarcomas), samples were obtained both from said tumours and from the bone marrow of the mice. […]

[6] = tested on: vessels of HL-60 tumour (granulocytic sarcoma) sections; assay: Immunohistochemistry of HL-60 tumours from human leukaemia mouse model; format: binding; details: biotinylated SIP, 2 μg/ml, HL-60 xenograft in nude mice, FIG. 4A
Protocol: as §2
The mouse model for human leukaemia used here was previously described in Potter et al. (1984). Specifically, nude mice were xenografted with cells from the HL-60 leukaemia cell line and, after development of HL-60 tumours (granulocytic sarcomas), samples were obtained both from said tumours and from the bone marrow of the mice.
Immunohistochemistry studies were then performed as described under “immunohistochemistry” above.

| Molecule | concentration range capable of killing target tumour cells and endothelial cells [1] | co-localization with antibodies specific for von Willebrand Factor (vWF) [2] | staining of blood vessels in bone marrow biopsies of extramedullary AML patients [3] | staining of blood vessels in bone marrow biopsies of AML patients [4] | staining of healthy bone marrow sections [5] | staining of vessels in HL-60 tumour sections [6] | staining of vessels in HL-60 tumour sections ([6]; listed as 4A1-F16 SIP) |
| --- | --- | --- | --- | --- | --- | --- | --- |
| cemadotin | picomolar concentration range |  |  |  |  |  |  |
| CC[C@]1(O)C[C@H]2CN(CCc3c([nH]c4ccccc34)[C@@](C(=O)OC)(c3cc4c(cc3OC)N(C)[C@H]3[C@@](O)(C(=O)NN)[C@H](O)[C@]5(CC)C=CCN6CC[C@]43[C@@H]65)C2)C1 [4-desacetyl-3-vinblastine monohydrazide] | picomolar concentration range |  |  |  |  |  |  |
| 4A1-F16-SIP: human monoclonal mini-immunoglobulin specific to the A1 domain of tenascin-C; sequence SEQ ID NO:25 (protein, Synthetic sequence 4A1-F16-SIP amino acid sequence) EVQLLESGGGLVQPGGSLRLSCAASGFTFSRYGMSWVRQAPGKGLEWVSAISGSGGSTYYADSVKGRFTISRDNSKNTLYLQMNSLRAEDTAVYYCAKAHNAFDYWGQGTLVTVSRGGGSGGGSGGSSELTQDPAVSVALGQTVRITCQGDSLRSYYASWYQQKPGQAPVLVIYGKNNRPSGIPDRFSGSSSGNTASLTITGAQAEDEADYYCNSSVYTMPPVVFGGGTKLTVLSGGSGGPRAAPEVYAFATPEWPGSRDKRTLACLIQNFMPEDISVQWLHNEVQLPDARHSTTQPRKTKGSGFFVFSRLEVTRAEWEQKDEFICRAVHEAASPSQTVQRAVSVNPESSRRGGC |  | excellent co-localization | strongly stained the blood vessels present in the bone marrow biopsies in both cases | strongly stained the blood vessels present in the bone marrow biopsy; also recorded: capable of staining the vast majority of blood vessels | no staining was visible | strongly stained the vessels of the HL-60 tumour sections | strongly stained the vessels present in the HL-60 tumour (granulocytic sarcoma) sections |
| F8-SIP (V5L/K18R): human monoclonal mini-immunoglobulin specific to the alternatively spliced EDA domain of fibronectin; sequence SEQ ID NO:26 (protein, Synthetic sequence F8-SIP (V5L/K18R) amino acid sequence) EVQLLESGGGLVQPGGSLRLSCAASGFTFSLFTMSWVRQAPGKGLEWVSAISGSGGSTYYADSVKGRFTISRDNSKNTLYLQMNSLRAEDTAVYYCAKSTHLYLFDYWGQGTLVTVSSGGGGSGGGSGGGGGEIVLTQSPGTLSLSPGERATLSCRASQSVSMPFLAWYQQKPGQAPRLLIYGASSRATGIPDRFSGSGSGTDFTLTISRLEPEDFAVYYCQQMRGRPPTFGQGTKVEIKSGGSGGPRAAPEVYAFATPEWPGSRDKRTLACLIQNFMPEDISVQWLHNEVQLPDARHSTTQPRKTKGSGFFVFSRLEVTRAEWEQKDEFICRAVHEAASPSQTVQRAVSVNPESSRRGGC |  |  | also visible and was either similar or slightly weaker than the level of staining observed with 4A1-F16-SIP | also visible, although the level of staining was weaker than that observed with 4A1-F16-SIP; also recorded: stained a large proportion of these blood vessels but fewer than observed with the 4A1-F16-SIP antibody | no staining was visible | strongly stained the vessels of the HL-60 tumour sections; also recorded: strongly stained the vessels present in the HL-60 tumour (granulocytic sarcoma) sections |  |

Reference: patent US9446124B2, “Targeting of bone marrow neovasculature” (Philogen S.P.A., priority 2009, dated 2016)
